Results taken from patent US20060269536A1 (UNIVERSITE DE LAUSANNE, published 2006).

T1: human neutrophil elastase (HNE) (human, UniProt P08246 30-247, limits assumed)
T1 sequence (looked up): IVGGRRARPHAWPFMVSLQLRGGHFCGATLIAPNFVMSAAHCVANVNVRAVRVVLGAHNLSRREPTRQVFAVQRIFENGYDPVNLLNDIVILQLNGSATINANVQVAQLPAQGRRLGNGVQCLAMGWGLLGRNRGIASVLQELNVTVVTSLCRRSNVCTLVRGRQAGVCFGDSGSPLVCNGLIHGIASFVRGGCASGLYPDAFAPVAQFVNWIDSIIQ


Key:
[1] = biological target: T2, Human chymotrypsin (Chtr) (human, UniProt P17538 19-263); assay: residual protease activity against [I]o/[E]o, linear regression, x intercept
T2 construct: Bought
Description: The stoichiometry of inhibition (SI) values were determined for the inhibition of rACTWT and its variants with hK2 and different other enzymes. An initial test was made with a molar excess of rACT (100 fold) over hK2, PSA, hK1, chymotrypsin (Chtr), plasma kallikrein (PK), urokinase (uPA) and human neutrophile elastase (HNE) enzymes. The reaction was carried out for 30 min at 25° C. (90 min at 37° C. for PSA) in reaction buffer (50 mM Tris pH 7.5, 150 mM NaCl, 0.05% Triton X-100, 0.01% BSA) and residual enzyme activity was measured by adding fluorescent substrates (Z-Phe-Arg-AMC for hK1, hK2 and PK, Suc-Ala-Ala-Pro-Phe-AMC for Chtr, Z-Gly-Gly-Arg-AMC for uPA, MeOSuc-Ala-Ala-Pro-Val-AMC for HNE, and CFP-TFRSA-YFP for PSA). Activity of enzyme in presence of inhibitors was compared to uninhibited reaction. For reactions where an inhibition was observed, SI was determined by incubating different concentrations of recombinant serpins. […]
In order to determine the SI values of all the recombinant variants, Applicants have incubated hK2 (5 nM) with different concentrations (6.25-500 nM) of rACT_{8.20} (x), rACT_{6.2} (□), rACT_{8.3} (Δ), rACT_{6.7} (⋄), rACT_{6.1} ( ), rACT_{5.18} (∘), rACTWT (+), at 25° C. for 30 min in reaction buffer. […] The SI was determined using linear regression analysis to extrapolate the I/E ratio (i.e. the x intercept).

[2] = biological target: T2, Human chymotrypsin (Chtr); assay: cell-based or functional assay
[3] = biological target: T1, human neutrophil elastase (HNE); assay: cell-based or functional assay
[4] = biological target: human plasma kallikrein (PK) (human, UniProt P03952 20-638); assay: cell-based or functional assay
human kallikrein hK1 = human kallikrein hK1 (human, UniProt P06870 25-262); assay: cell-based or functional assay
[5] = biological target: human glandular kallikrein hK2 (human, UniProt P20151 25-261); assay: cell-based or functional assay
[6] = biological target: urokinase plasminogen activator (uPA) (UniProt P00749 21-431, limits assumed); assay: cell-based or functional assay
hK3 (PSA) [7] = biological target: T3, hK3 (PSA) (human, UniProt P07288 25-261); assay: cell-based or functional assay
hK3 (PSA) [8] = biological target: T3, hK3 (PSA); assay: Western blot of hK3-ACT complex, anti-His antibody (FIG. 6B)
Description: For each variants of ACT, 1 μg of inhibitor was incubated with 100 ng of either hK2 or hK3 during 1 hour at 37° C. under physiological conditions.

T3 sequence (P07288 25-261 limits assumed): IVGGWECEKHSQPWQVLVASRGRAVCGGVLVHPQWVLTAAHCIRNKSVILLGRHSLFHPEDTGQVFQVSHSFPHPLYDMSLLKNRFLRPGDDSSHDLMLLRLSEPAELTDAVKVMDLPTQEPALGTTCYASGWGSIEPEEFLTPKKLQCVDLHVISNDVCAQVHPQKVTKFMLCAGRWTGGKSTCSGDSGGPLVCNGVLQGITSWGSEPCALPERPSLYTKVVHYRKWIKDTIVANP
T2 sequence (P17538 19-263): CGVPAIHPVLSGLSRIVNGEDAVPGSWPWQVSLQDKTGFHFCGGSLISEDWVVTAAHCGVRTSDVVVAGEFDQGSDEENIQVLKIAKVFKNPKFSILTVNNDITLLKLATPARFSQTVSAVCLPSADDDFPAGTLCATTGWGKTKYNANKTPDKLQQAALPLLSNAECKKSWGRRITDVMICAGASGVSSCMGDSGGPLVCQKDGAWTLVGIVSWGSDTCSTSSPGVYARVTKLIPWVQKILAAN
Sequence of human kallikrein hK1 (P06870 25-262): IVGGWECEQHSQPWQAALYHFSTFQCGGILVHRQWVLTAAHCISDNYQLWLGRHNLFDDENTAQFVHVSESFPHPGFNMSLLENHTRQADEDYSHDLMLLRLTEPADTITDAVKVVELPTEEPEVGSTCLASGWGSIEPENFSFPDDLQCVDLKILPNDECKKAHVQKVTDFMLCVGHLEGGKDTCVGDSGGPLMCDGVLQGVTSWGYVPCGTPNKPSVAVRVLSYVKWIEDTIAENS
Sequence of human plasma kallikrein (PK) (P03952 20-638 limits assumed): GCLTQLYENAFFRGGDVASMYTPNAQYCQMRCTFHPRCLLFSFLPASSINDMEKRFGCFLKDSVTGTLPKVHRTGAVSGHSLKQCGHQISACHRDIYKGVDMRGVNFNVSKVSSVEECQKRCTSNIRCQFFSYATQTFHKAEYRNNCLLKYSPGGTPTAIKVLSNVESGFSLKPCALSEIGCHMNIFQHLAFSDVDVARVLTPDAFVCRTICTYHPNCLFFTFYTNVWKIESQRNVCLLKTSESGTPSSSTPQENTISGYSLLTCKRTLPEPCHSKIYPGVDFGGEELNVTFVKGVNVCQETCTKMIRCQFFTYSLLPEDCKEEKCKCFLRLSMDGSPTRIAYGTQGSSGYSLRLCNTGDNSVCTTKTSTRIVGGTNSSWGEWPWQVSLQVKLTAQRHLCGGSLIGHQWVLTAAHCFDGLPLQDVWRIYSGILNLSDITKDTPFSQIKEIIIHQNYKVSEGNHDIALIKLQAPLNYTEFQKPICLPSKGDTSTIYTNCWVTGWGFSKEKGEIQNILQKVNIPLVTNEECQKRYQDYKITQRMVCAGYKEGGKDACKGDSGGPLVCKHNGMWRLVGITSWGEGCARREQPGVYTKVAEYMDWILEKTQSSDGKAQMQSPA

| SI (stoichiometry of inhibition) [1] | Inhibition % (residual enzyme activity, fluorescent substrate) [2] [%] | Inhibition % (residual enzyme activity, fluorescent substrate) [3] [%] | Inhibition % (residual enzyme activity, fluorescent substrate) [4] [%] | Inhibition % (residual enzyme activity, fluorescent substrate) (human kallikrein hK1) [%] | Inhibition % (residual enzyme activity, fluorescent substrate) [5] [%] | Inhibition % (residual enzyme activity, fluorescent substrate) [6] [%] | Inhibition % (residual enzyme activity, CFP-TFRSA-YFP substrate, 90 min at 37°) (hK3 (PSA) [7]) [%] | binding result (hK3 (PSA) [8]) | Binder |
| --- | --- | --- | --- | --- | --- | --- | --- | --- | --- |
| 2 | 100 | 15 | 0 | 0 | 0 | 0 | 80 | – | rACTWT (recombinant wild type α1-antichymotrypsin) (other, human, Serpin; Expressed in E. coli TG1 from pQE-9 with an N-terminal His tag; also called ACTWT (LL↓SA); wild type rACT) HHHHHHNSPLDEENLTQENQDRGTHVDLGLASANVDFAFSLYKQLVLKAPDKNVIFSPLSISTALAFLSLGAHNTTLTEILKGLKFNLTETSEAEIHQSFQHLLRTLNQSSDELQLSMGNAMFVKEQLSLLDRFTEDAKRLYGSEAFATDFQDSAAAKKLINDYVKNGTRGKITDLIKDLDSQTMMVLVNYIFFKAKWEMPFDPQDTHQSRFYLSKKKWVMVPMMSLHHLTIPYFRDEELSCTVVELKYTGNASALFILPDQDKMEEVEAMLLPETLKRWRDSLEFREIGELYLPKFSISRDYNLNDILLQLGIEEAFTSKADLSGITGARNLAVSQVVHKAVLDVFEEGTEASAATAVKITLLSALVETRTIVRFNRPFLMIIVPTDTQNIFFMSKVTNPKQA |
| – | 66 | 30 | 54 | 0 | 95 | 0 | – | – | rACT8.20 (designed binder) MRGSHHHHHHSRHPNSPLDEENLTQENQDRGTHVDLGLASANVDFAFSLYKQLVLKAPDKNVIFSPLSISTALAFLSLGAHNTTLTEILKGLKFNLTETSEAEIHQSFQHLLRTLNQSSDELQLSMGNAMFVKEQLSLLDRFTEDAKRLYGSEAFATDFQDSAAAKKLINDYVKNGTRGKITDLIKDLDSQTMMVLVNYIFFKAKWEMPFDPQDTHQSRFYLSKKKWVMVPMMSLHHLTIPYFRDEELSCTVVELKYTGNASALFILPDQDKMEEVEAMLLPETLKRWRDSLEFREIGELYLPKFSISRDYNLNDILLQLGIEEAFTSKADLSGITGARNLAVSQVVHKAVLDVFEEGTEASAATAVKITLRSRAVETRTIVRFNRPFLMIIVPTDTQNIFFMSKVTNPKQA |
| – | 0 | 60 | 100 | 0 | 100 | 0 | 0 | no binding | rACT6.1 (designed binder, N-terminal His tag, E. coli TG1; also called MD61; MD 61) MRGSHHHHHHSRHPNSPLDEENLTQENQDRGTHVDLGLASANVDFAFSLYKQLVLKAPDKNVIFSPLSISTALAFLSLGAHNTTLTEILKGLKFNLTETSEAEIHQSFQHLLRTLNQSSDELQLSMGNAMFVKEQLSLLDRFTEDAKRLYGSEAFATDFQDSAAAKKLINDYVKNGTRGKITDLIKDLDSQTMMVLVNYIFFKAKWEMPFDPQDTHQSRFYLSKKKWVMVPMMSLHHLTIPYFRDEELSCTVVELKYTGNASALFILPDQDKMEEVEAMLLPETLKRWRDSLEFREIGELYLPKFSISRDYNLNDILLQLGIEEAFTSKADLSGITGARNLAVSQVVHKAVLDVFEEGTEASAATAVKIMTRSNAVETRTIVRFNRPFLMIIVPTDTQNIFFMSKVTNPKQA |
| – | 0 | 0 | 0 | 0 | 73 | 0 | 0 | – | ACT5.18 (designed binder) MRGSHHHHHHSRHPNSPLDEENLTQENQDRGTHVDLGLASANVDFAFSLYKQLVLKAPDKNVIFSPLSISTALAFLSLGAHNTTLTEILKGLKFNLTETSEAEIHQSFQHLLRTLNQSSDELQLSMGNAMFVKEQLSLLDRFTEDAKRLYGSEAFATDFQDSAAAKKLINDYVKNGTRGKITDLIKDLDSQTMMVLVNYIFFKAKWEMPFDPQDTHQSRFYLSKKKWVMVPMMSLHHLTIPYFRDEELSCTVVELKYTGNASALFILPDQDKMEEVEAMLLPETLKRWRDSLEFREIGELYLPKFSISRDYNLNDILLQLGIEEAFTSKADLSGITGARNLAVSQVVHKAVLDVFEEGTEASAATAVKITERVSPVETRTIVRFNRPFLMIIVPTDTQNIFFMSKVTNPKQA |
| – | 0 | 0 | 36 | 0 | 100 | 0 | 0 | – | rACT6.7 (designed binder) MRGSHHHHHHSRHPNSPLDEENLTQENQDRGTHVDLGLASANVDFAFSLYKQLVLKAPDKNVIFSPLSISTALAFLSLGAHNTTLTEILKGLKFNLTETSEAEIHQSFQHLLRTLNQSSDELQLSMGNAMFVKEQLSLLDRFTEDAKRLYGSEAFATDFQDSAAAKKLINDYVKNGTRGKITDLIKDLDSQTMMVLVNYIFFKAKWEMPFDPQDTHQSRFYLSKKKWVMVPMMSLHHLTIPYFRDEELSCTVVELKYTGNASALFILPDQDKMEEVEAMLLPETLKRWRDSLEFREIGELYLPKFSISRDYNLNDILLQLGIEEAFTSKADLSGITGARNLAVSQVVHKAVLDVFEEGTEASAATAVKIKLRTTLVETRTIVRFNRPFLMIIVPTDTQNIFFMSKVTNPKQA |
| – | 0 | 0 | 100 | 0 | 100 | 0 | 0 | no binding | rACT6.2 (designed binder, Recombinant human α1-antichymotrypsin variant, RSL P3-P'3 = TRRSID; N-terminal His tag, E. coli TG1; also called MD62; MD 62) MRGSHHHHHHSRHPNSPLDEENLTQENQDRGTHVDLGLASANVDFAFSLYKQLVLKAPDKNVIFSPLSISTALAFLSLGAHNTTLTEILKGLKFNLTETSEAEIHQSFQHLLRTLNQSSDELQLSMGNAMFVKEQLSLLDRFTEDAKRLYGSEAFATDFQDSAAAKKLINDYVKNGTRGKITDLIKDLDSQTMMVLVNYIFFKAKWEMPFDPQDTHQSRFYLSKKKWVMVPMMSLHHLTIPYFRDEELSCTVVELKYTGNASALFILPDQDKMEEVEAMLLPETLKRWRDSLEFREIGELYLPKFSISRDYNLNDILLQLGIEEAFTSKADLSGITGARNLAVSQVVHKAVLDVFEEGTEASAATAVKITRRSIDVETRTIVRFNRPFLMIIVPTDTQNIFFMSKVTNPKQA |
| – | 0 | 0 | 0 | 0 | 100 | 0 | 0 | – | rACT8.3 (designed binder) MRGSHHHHHHSRHPNSPLDEENLTQENQDRGTHVDLGLASANVDFAFSLYKQLVLKAPDKNVIFSPLSISTALAFLSLGAHNTTLTEILKGLKFNLTETSEAEIHQSFQHLLRTLNQSSDELQLSMGNAMFVKEQLSLLDRFTEDAKRLYGSEAFATDFQDSAAAKKLINDYVKNGTRGKITDLIKDLDSQTMMVLVNYIFFKAKWEMPFDPQDTHQSRFYLSKKKWVMVPMMSLHHLTIPYFRDEELSCTVVELKYTGNASALFILPDQDKMEEVEAMLLPETLKRWRDSLEFREIGELYLPKFSISRDYNLNDILLQLGIEEAFTSKADLSGITGARNLAVSQVVHKAVLDVFEEGTEASAATAVKIRGRSELVETRTIVRFNRPFLMIIVPTDTQNIFFMSKVTNPKQA |
